In publication PMC4652282, “An Efficient Site-Specific Method for Irreversible Covalent Labeling of Proteins with a Fluorophore”:
Where a chain is given by its changes, count along the chain named.

Columns and labels:
Conditions in all cases: protein: recombinant; tags: C-terminal SS-his6-GG-ald6 (LCTPSR); chain copies: 2; blunt, one internal G/T mismatch
[1] = target: T1, EcMutS-his6/ald6, unlabeled (Escherichia coli, UniProt P23909 1-853); experiment: SPR; kon 5.29e5 M-1 s-1; koff 6.10e-4 s-1; koff with ATP 0.53 s-1; SPR at 25 C, buffer not shown; EMSA: 25 mM Hepes (GS Buffer, rest not shown), on ice 15 min
T1 sequence: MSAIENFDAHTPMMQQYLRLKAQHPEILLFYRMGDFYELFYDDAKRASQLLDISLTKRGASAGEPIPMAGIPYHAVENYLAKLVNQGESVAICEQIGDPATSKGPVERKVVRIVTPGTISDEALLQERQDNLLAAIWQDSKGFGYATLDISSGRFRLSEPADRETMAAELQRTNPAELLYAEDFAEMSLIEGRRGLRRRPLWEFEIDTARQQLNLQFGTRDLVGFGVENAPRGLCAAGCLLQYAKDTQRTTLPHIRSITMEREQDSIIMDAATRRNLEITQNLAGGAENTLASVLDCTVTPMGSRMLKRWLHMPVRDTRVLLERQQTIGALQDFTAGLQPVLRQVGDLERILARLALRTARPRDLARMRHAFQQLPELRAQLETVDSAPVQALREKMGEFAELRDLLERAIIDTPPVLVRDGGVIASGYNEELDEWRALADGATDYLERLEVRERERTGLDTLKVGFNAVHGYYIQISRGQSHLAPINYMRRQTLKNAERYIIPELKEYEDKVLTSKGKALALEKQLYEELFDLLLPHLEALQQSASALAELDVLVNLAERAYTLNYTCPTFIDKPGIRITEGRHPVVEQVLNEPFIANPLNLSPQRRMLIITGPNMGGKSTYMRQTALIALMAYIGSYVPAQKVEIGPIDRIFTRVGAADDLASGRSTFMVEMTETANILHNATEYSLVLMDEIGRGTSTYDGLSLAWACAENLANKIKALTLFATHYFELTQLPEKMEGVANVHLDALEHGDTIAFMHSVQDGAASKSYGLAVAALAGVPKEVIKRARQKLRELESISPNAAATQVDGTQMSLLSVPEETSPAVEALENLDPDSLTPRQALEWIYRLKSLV

[2] = target: T2, EcMutS-his6/ald6, AF647-labeled (Escherichia coli, UniProt P23909 1-853); experiment: SPR; kon 3.44e5 M-1 s-1; koff 8.93e-4 s-1; koff with ATP 0.26 s-1; SPR at 25 C, buffer not shown; EMSA: 25 mM Hepes (GS Buffer, rest not shown), on ice 15 min
T2 sequence: T1 sequence

[3] = target: T3, EcMutS-his6/ald6(D835R,R840E), unlabeled (Escherichia coli, UniProt P23909 1-853, D835R;R840E); experiment: SPR; kon 9.48e5 M-1 s-1; koff 33.02e-4 s-1; koff with ATP 0.48 s-1; SPR at 25 C, buffer not shown; EMSA: 25 mM Hepes (GS Buffer, rest not shown), on ice 15 min
T3 sequence: T1 sequence with D835R, R840E

[4] = target: T4, EcMutS-his6/ald6(D835R,R840E), AF555-labeled (Escherichia coli, UniProt P23909 1-853, D835R;R840E); experiment: SPR; kon 4.37e5 M-1 s-1; koff 24.48e-4 s-1; koff with ATP 0.45 s-1; SPR at 25 C, buffer not shown; EMSA: 25 mM Hepes (GS Buffer, rest not shown), on ice 15 min
T4 sequence: T1 sequence with D835R, R840E

B1: G/T mismatch DNA (SPR) (dsDNA)
DNA 1: AACTATAGGGCGAATTGGGTACCGCTGAATTGCACCGAGCTTGATCCTCGATGATCCTAAGCTAAGCTTCAGCTCCAGCTTT
DNA 2: AAAGCTGGAGCTGAAGCTTAGCTTAGGATCATCGAGGATCGAGCTCGGTGCAATTCAGCGGTACCCAATTCGCCCTATAGTT
For B1, the Kd [1] was 1.25 ± 0.53 nM, the Kd [2] was 2.63 ± 0.49 nM and the Kd [3] was 3.85 ± 1.78 nM. For the same binder, the Kd [4] was 5.75 ± 1.51 nM.
